# Experimental data as given in US7625733B2, “Isolation of quiescin-sulfhydryl oxidase from milk” (University of Delaware, priority 2007, dated 2009).
# Where two headings read alike, the source gives them in different places.
# Experiments:
# [1] = Inhibition of sulfhydryl oxidase activity by EDTA; assay type: biochemical; details: purified QSOX1 from milk
# [2] = Stimulation of sulfhydryl oxidase activity by added ferrous iron; assay type: biochemical; details: purified QSOX1 from milk
# [3] = Oxygen electrode assay, oxidation of reduced glutathione by QSOX1; assay type: biochemical; details: substrate GSH, 25° C., 50 mM phosphate buffer, pH 7.5, 1 mM EDTA
# Protocol: (§1) Oxygen electrode assays were performed in duplicate at 25° C. as described in K. L. Hoober, et al., J. Biol. Chem. 271: 30510-30516, 1996. Assays were initiated by the addition of 5 mM DTT or reduced glutathione (GSH). All thiol substrates were standardized with DTNB before use. Reduced RNase was prepared, characterized and stored as described in K. L. Hoober, et al., J. Biol. Chem. 271: 30510-30516, 1996. Assays of the oxidation of reduced RNase were performed as described by K. L. Hoober et al., J. Biol. Chem. 274: 22147-22150.
# [4] = Oxygen electrode assay, oxidation of dithiothreitol by QSOX1; assay type: biochemical; details: substrate DTT, 25° C., 50 mM phosphate buffer, pH 7.5, 1 mM EDTA
# Protocol: as §1
# reduced RNase (rRNase) [5] = experiment: Oxidation of reduced RNase by QSOX1; assay type: biochemical
# Protocol: as §1
# [6] = substrate GSH, data from Hoober et al. 1999, cited from earlier work
# [7] = substrate DTT, data from Hoober et al. 1999, cited from earlier work
# reduced RNase (rRNase) [8] = details: substrate rRNase, data from Hoober et al. 1999, cited from earlier work
Molecule,Is EDTA inhibitory? [1],Is activity stimulated by added Ferrous iron? [2],Km [3],kcat ([3]; thiols oxidized per minute),Km [4],kcat ([4]; thiols oxidized per minute),catalytic efficiency relative to egg white QSOX1 (reduced RNase (rRNase) [5]; oxidation of reduced pancreatic RNase),"Km (reduced RNase (rRNase) [5]; substrate rRNase, 25° C., 50 mM phosphate buffer, pH 7.5, 1 mM EDTA)","kcat (reduced RNase (rRNase) [5]; substrate rRNase, 25° C., 50 mM phosphate buffer, pH 7.5, 1 mM EDTA, thiols oxidized per minute)",Km [6],kcat ([6]; thiols oxidized per minute),Km [7],kcat ([7]; thiols oxidized per minute),Km (reduced RNase (rRNase) [8]),kcat (reduced RNase (rRNase) [8]; thiols oxidized per minute)
"Milk QSOX1: Flavin-dependent quiescin Q6 sulfhydryl oxidase 1 isolated and purified from bovine milk, amino acid sequence SEQ ID NO:1 (protein, listed as Bos taurus) SALYSSSDPLTLLRADTVRSTVLGSSSAWAVEFFASWCGHCIAFAPTWKALANDVKDWRPALNLAALDCAEETNSAVCRDFNIPGFPTVRFFKAFSKTGSGTTLSVAGADVQTLRERLIDALESHSDTWPPACPPLEPARLEEITGFFARNNEEYLALIFEKEGSYLGREVTLDLSQHQGIAVRRVLNTERDVVNRFGVTNFPSCYLLSRNGSFSRVPALTESRSFYTTYLRKFSGSTRGAVQTTAAPATTSAVAPTVWKVADRSKIYMADLESALHYILRIEVGKFSVLEGQRLVALKKFMAVLAKYFRGRPLVQNFLHSMNDWLKKQQRKKIPYGFFKNALDSRKEGTVIAEKVNWVGCQGSEPHFRGFPCSLWILFHFLTVQAAQEGVDHPQERAKAQEVLQAIRGYVRFFFGCRECAGHFEQMASGSMHRVGSLNSAVLWFWSSHNKVNARLAGAPSEDPQFPKVQWPPRELCSACHNELRGTPVWDLDNILKFLKTHFSPSNIVLDFPSAGPGPWR",No,No,4.9 mM,1760 min⁻¹,86 µM,1880 min⁻¹,two-fold higher,60 µM,1340 min⁻¹,–,–,–,–,–,–
"Egg QSOX1: Avian QSOX1 isolated from egg white; data from Hoober et al. 1999 (protein, UniProt Q8JGM4 43-743, looked up) Sulfhydryl oxidase 1: RSLYSPSDPLELLGADTAERRLLGSPSAWAVEFFASWCGHCIHFAPTWRALAEDVREWRPAVMIAALDCADEANQQVCADFGITGFPTLKFFRAFSKKAEDGIRIAHPTATVADLRRAIITNLEQSGDAWPPACPPLEPASAEEVRSFFHRNTERYLALIFEQSNSFVGREVALDLLQYENVAVRRVLSSEEELVEKFGVTTFPSAYLLLRNGSFSRLPVHAEARSFYTYYLQTLSGVTRGSYRLNVTGSAINETRALQPAQADRSKVYVADLESTVHYTLRVEAGRPAVLAGAQLAALKCYVATLAKYFPGRPSVQTFLQSLDSWLRNWTEPELPRSALKEAVKNKEDASPAAVLPTNVTWVGCRGSEPHFRGYPCGLWTIFHLLTVQAAQGGPDEELPLEVLNTMRCYVKHFFGCQECAQHFEAMAAKSMDQVKSRREAVLWLWSHHNEVNARLAGGDTEDPQFPKLQWPPPDMCPQCHREERGVHTWDEAAVLSFLKEHFSLGNLYLDHAIPIPMAGEEAAASARLSTAGLREKEEEERKEEEEEGEKETEKPHREGETGRPGSSELRRPSIVRRNPRLRALGEDIVDLDSFSEQHFKSKALRAAGRHRRLSKRDTVALHHDAGWERLQVPESREEEEEGGVLRRSPWLRVLGLGFSRLDVSLCIALYFLSSMCLLGMYTFFRLRTRARKGRPGFPVA",–,–,–,–,–,–,–,–,–,20 mM,2780 min⁻¹,150 µM,2060 min⁻¹,115 µM,1220 min⁻¹
